pKd: −log10 of the molar value. Read-outs that look alike come from different tables or passages of the source.

Data set [1] addresses Troponin I (cardiac) (UniProt P19429). Put plainly: filter.
The target of data set [2] is Influenza hemagglutinin H3N2-HA (Influenza A virus) (UniProt P03438). In words: BLI. In general terms: In BLI a coated tip is dipped into the sample, and binding shifts an interference pattern.
The target is the same in data set [3]. Put plainly: filter. Particulars: dot blot.
The target in data set [4] is Influenza hemagglutinin H1N1-HA (Influenza A virus) (UniProt Q289M7).
In data set [5] the target is Influenza hemagglutinin H5N1-HA (Influenza A virus) (UniProt Q8QPL1). Put plainly: filter.
Data set [6] relates to Control lentivirus without spike. Put plainly: filter. The conditions noted are these: three identical arms joined by Trebler, dot blot.

“GGCAGCAGGAAGACAAGACATGGGTGGCGGGGACGGGGCGATGGGAACTTAGATTGCTAGTGGTTCTGTGGTTGCTCTGT [TnAp1]”: the negative-log Kd (pKd) (in general, −log10 of the Kd, conventionally taken in molar units) in data set [1] is 6.90.
“GGCAGCAGGAAGACAAGACATGGGTGGCGGGGACGGGGCGATGGGAACTTAGATTGCTAGTGGTTCTGTGGTTGCTCTGTTTTTTCTCTCGC [Trimeric (trident) TnAp1]” had a negative logarithm of the Kd (pKd) in data set [1] (three identical arms joined by Trebler, root TTTTT-Biotin) of 8.40.
On to “GGGTTTGGGTTGGGTTGGGTTTTTGGGTTTGGGTTGGGTTGGGAAAAA [RHA06]”, for which, in data set [2], the negative-log Kd (pKd) is 8.10.
In turn, “GGGTTTGGGTTGGGTTGGGTTTTTGGGTTTGGGTTGGGTTGGGAAAAATTTTTCTCTCGC [Trident RHA06 + antisense 1:1]” had a pKd in data set [3] (Trebler-joined arms, antisense DNA of RHA06 hybridised at AS:aptamer 1:1, one arm blocked) of 9.51.
In data set [3] (Trebler-joined arms, antisense DNA of RHA06 hybridised at AS:aptamer 2:1, two arms blocked), “GGGTTTGGGTTGGGTTGGGTTTTTGGGTTTGGGTTGGGTTGGGAAAAATTTTTCTCTCGC [Trident RHA06 + antisense 2:1]” gave a pKd of 8.10.
As for “GGGTTTGGGTTGGGTTGGGTTTTTGGGTTTGGGTTGGGTTGGGAAAAATTTTTCTCTCGC [Trimeric (trident) RHA06]”, the pKd is 10.15 in data set [4]; 9.92 in data set [2] (three identical arms (SEQ 12) joined by Trebler, root TTTTT-Biotin); 10.05 in data set [3] (three identical arms (SEQ 12) joined by Trebler, root TTTTT-Biotin, RT); 9.89 in data set [5].
“TTACGTCAAGGTGTCACTCCGTAGGGTTTGGCTCCGGGCCTGGCGTCGGTCGTCTCTCGCGAAGCATCTCTTTGGCGTGTTTTTTTTTTTTTTT [TMSA52]” gave a pKd in data set [6] of under 9.30.

The values are drawn from patent US20260098270.
